Measured values reported in doi:10.1101/2025.02.17.638454, “Synergistic RAS-MAPK and AKT Activation in MYC-Driven Tumors via Adjacent PVT1 Rearrangements” (bioRxiv, 2025).

Target: T1, Recombinant KRAS protein (#ab156968, Abcam) (UniProt P01116 1-189)
T1 construct: KRAS, recombinant protein bought from Abcam; source: bought: Abcam (#ab156968), dialyzed into ITC buffer
Assay: ITC; twenty 6 ul injections (150 s intervals) of 500 uM HNB into the cell with 93 uM KRAS; 20 mM Tris pH 8.0, 100 mM NaCl, 5 mM beta-mercaptoethanol; 25 C; Affinity ITC (TA Instruments)
Conditions: both partners purified

T1 sequence (P01116 whole entry): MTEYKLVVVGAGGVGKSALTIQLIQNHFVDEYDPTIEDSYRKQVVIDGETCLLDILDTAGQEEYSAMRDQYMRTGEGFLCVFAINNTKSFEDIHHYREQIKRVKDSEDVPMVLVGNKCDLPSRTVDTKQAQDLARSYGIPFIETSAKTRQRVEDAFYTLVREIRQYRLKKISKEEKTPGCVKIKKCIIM

MKTQLGAVKGFLHV [Honeybadger (HNB) peptide used for ITC]
Kd: 364 ± 2 µM
